From patent US20240115742A1, “FLUORINATED FIBERS FOR MULTIMODAL 1H AND 19F MRI, ULTRASOUND, FLUORESCENCE DETECTION AND CONFORMATIONAL AND TEMPERATURE DETECTION BY 19F MRS” (New York University, priority 2022, published 2024)

What was measured:
Assay type in all cases: physicochemical
[1] = Small angle X-ray scattering of Q5
Method: Small Angle X-ray Scattering (SAXS). SAXS was employed to measure interparticle interactions, structure, and shape of Q5 since it was capable of gelation in the instrument holder within 24 h. SAXS experiments were performed at the National Synchrotron Light Source-II (NSLS-II) Beamline 16-ID (LiX) at Brookhaven National Laboratory.
Small Angle X-ray Scattering (SAXS). All measurements were taken within 12 h of concentration of the protein from the dialysis bag. To study Q5 as an isolated particle, 150 μM (˜1 mg/mL) protein and dialysis buffer (50 mM Tris 500 mM NaCl pH 8.0) was loaded into a flow cell and measured in the q range […] to 3.19 Å^−1. The Q5 protein transition from solution to hydrogel was measured by incubation at 4° C. of 3 mM of Q5 protein in an eight-slot holder capable of loading 30 μL of each sample. Between measurements, the holder was returned for incubation at 4° C. Independent slots were used to load six samples of the Q5 hydrogel in solution including one for the empty cell and one for the dialysis buffer. Each slot was measured once incrementally over a 24 h incubation window to negate the impact of radiation (except for the measurement made at 24 h which was measured from the previous time point sample due to sample error in the last slot holder, however, a negligible impact of radiation was observed). Similarly, Q5 hydrogel measurements made at 3 mM and 4° C. were measured in the q range 0.005 Å^−1 to 3.19 Å^−1. Kratky plots were calculated by Guinier analysis of Rg and I(0) values. Flory exponents were calculated using MFF fit by Sosnick group online tool. Pair distance distribution function, P(r), was calculated using primus (ATSAS software).

[2] = Passive microrheology (multiple particle tracking); settings: 4 °C
Method: Microrheology. Protein was concentrated to 2 mM, as measured by BCA assay, and immediately aliquoted 27.7 μL into a 200 μL PCR tube. 1% v/v (or 0.3 μL) of […] red polystyrene fluorometric beads (FluoSpheres) were then added to the sample. A glass capillary tube was then loaded with sample by capillary action and sealed to prevent evaporation while being affixed to a microscopy slide using two-component fast-curing epoxy (JB Weld). Samples were then imaged at 0 h as a starting measurement and then every 12 h using a Leica DMI4000b inverted microscope equipped with a Leica DFC310 FX 1.4 megapixel camera at 40× magnification with 2×2 binning. […] Each image series was recorded for a total of 300 frames with a lag time (i) of 0.037 s between each frame. Relaxation exponents i.e. the logarithmic slopes of particle mean-squared displacements (MSDs) with respect to lag time as determined by multiple particle tracking (MPT) analysis were used to determine when equilibration of the hydrogel was complete and measurements were no longer recorded (60 h in this case). […]
Gelation kinetics of the hydrogels were assessed using passive microrheology (FIG. 61a-e). Time to gelation was measured immediately after concentration to 2 mM at 4° C. by incubating with 1 μm fluorescent tracer beads added to the protein in solution state at a final concentration of 1% (v/v). […]

Cryo-EM of Q5 gel = assay: Cryo-EM of Q5 gel
Method: Cryo-Electron Microscopy. Lacey Carbon 300 mesh copper grids (Ted Pella) were used for cryo-EM imaging on FEI TALOS F200C with Ceta 16M camera at 200 kV accelerating voltage. PELCO easiGlow™ Glow Discharge Cleaning System was also used for the plasma treatment of the grids.
Cryo-EM. Cryo-EM samples were prepared with the Vitrobot system (Thermo Fisher Scientific) which can help vitrify a thin solution layer at low temperature. Approximately 4 μl of sample solution was applied to the grids in the chamber of Vitrobot at 4° C. and 100% humidity. The sample solution was incubated for 10 s and then the grid was blotted three times. Blotting lasted 1 s for each time. […] Then, the grid was transferred into liquid nitrogen. The cryo-EM holder was kept at −175° C. to prevent solvent crystallization during the imaging. Coarse-grained Model Details. Each bond is defined by Equation 10: […]

Q5: Q hydrogel variant from Rosetta Monte Carlo search, SEQ ID NO: 14 (MRGSHHHHHHGSIEGRVKEITFIKKTIEQIAEEMKEINKAIHDIRHALENISKK) [Protein Q5]
P(r) distribution centre ([1]; 150 μM, 0 h at 4 °C): 22.5 Å
average step-size increase of P(r) peaks ([1]; 3 mM, 24 h at 4 °C): 39.1±4.2 Å
cylinder length ([1]; assuming cylindrical shape): 6.8±0.4 nm
time to complete gelation (sol-gel transition) [2]: ≤ 24 h
fiber diameter (cryo-EM) (Cryo-EM of Q5 gel; 0.5 mM, n=100): 3.4±0.7 nm
fiber diameter (cryo-EM) (Cryo-EM of Q5 gel; 1 mM, n=100): 5.6±2.1 nm
fiber spacing by FFT (Cryo-EM of Q5 gel; 2 mM): 14-17 nm
crosslinked fiber diameter (cryo-EM) (Cryo-EM of Q5 gel; 2 mM, n=100): 5.8±1.5 nm
